Assay results reported in patent publication US20190241648A1 (STATEN BIOTECHNOLOGY B V, published 2019).
Ends that are not written are not given here.

Key:
Test in all cases: peptide microarray
[1] = molecular target: T1, wild-type ApoC3 peptide DKFSEFWDLDPEV (SEQ ID NO: 44) (human, not fully specified (bridges); also: cyclic constrained, ring type and positions not given here)
T1 construct: 13 aa cyclic constrained peptide
T1 peptide: DKFSEFWDLDPEV
Procedure: (§1) F64 was completely variable.
(§2) Pre: staining of one of the ApoC3 peptide microarrays was done with the secondary antibody goat anti-human IgG (Fe) DyLight680 (1:5000) and control antibody mouse monoclonal anti-HA (12CA5) DyLight800 (1:2000) to investigate background interactions of the secondary antibody with the antigen-derived peptides that could interfere with the main assays. Subsequent incubation of other ApoC3 peptide microarrays with antibody samples was followed by staining with secondary and control antibodies as well as read-out at scanning intensities of 7/7 (red/green). The additional HA peptides framing the peptide arrays were stained as internal quality control to confirm the assay quality and the peptide microarray integrity.

ApoC3 peptide … W65A = ApoC3 peptide … W65A (human, cyclic constrained)
Procedure: as §1, §2

ApoC3 peptide … D68C = molecular target: T2, ApoC3 peptide … D68C (human, not fully specified (bridges); also: cyclic constrained)
T2 peptide: DKFSEFWDLCPEV
Procedure: as §1, §2

ApoC3 peptide … E63F = ApoC3 peptide … E63F (human, cyclic constrained)
Procedure: as §1, §2

ApoC3 peptide … L67F = molecular target: T3, ApoC3 peptide … L67F (human, not fully specified (bridges); also: cyclic constrained)
T3 peptide: DKFSEFWDFDPEV
Procedure: as §1, §2

ApoC3 peptide … V71G = ApoC3 peptide … V71G (human, cyclic constrained)
Procedure: as §1, §2

ApoC3 peptide … D59H = molecular target: T4, ApoC3 peptide … D59H (human, cyclic constrained)
T4 peptide: HKFSEFWDLDPEV
Procedure: as §1, §2

ApoC3 peptide … S62H = ApoC3 peptide … S62H (human, cyclic constrained)
Procedure: as §1, §2

ApoC3 peptide … W65H = molecular target: T5, ApoC3 peptide … W65H (human, not fully specified (bridges); also: cyclic constrained, ring type and places not given here)
T5 peptide: DKFSEFHDLDPEV
Procedure: as §1, §2

ApoC3 peptide … D66H = molecular target: T6, ApoC3 peptide … D66H (human, not fully specified (bridges); also: cyclic constrained)
T6 peptide: DKFSEFWHLDPEV
Procedure: as §1, §2

ApoC3 peptide … D68H = molecular target: T7, ApoC3 peptide … D68H (human, cyclic constrained)
T7 peptide: DKFSEFWDLHPEV
Procedure: as §1, §2

ApoC3 peptide … P69H = molecular target: T8, ApoC3 peptide … P69H (human, not fully specified (bridges); also: cyclic constrained)
T8 peptide: DKFSEFWDLDHEV
Procedure: as §1, §2

ApoC3 peptide … L67I = molecular target: T9, ApoC3 peptide … L67I (human, not fully specified (bridges); also: cyclic constrained)
T9 peptide: DKFSEFWDIDPEV
Procedure: as §1, §2

ApoC3 peptide … F61K = molecular target: T10, ApoC3 peptide … F61K (human, not fully specified (bridges); also: cyclic constrained)
T10 peptide: DKKSEFWDLDPEV
Procedure: as §1, §2

ApoC3 peptide … F61L = molecular target: T11, ApoC3 peptide … F61L (human, not fully specified (bridges); also: cyclic constrained)
T11 peptide: DKLSEFWDLDPEV
Procedure: as §1, §2

ApoC3 peptide … D66L = molecular target: T12, ApoC3 peptide … D66L (human, not fully specified (bridges); also: cyclic constrained)
T12 peptide: DKFSEFWLLDPEV
Procedure: as §1, §2

ApoC3 peptide … P69M = molecular target: T13, ApoC3 peptide … P69M (human, not fully specified (bridges); also: cyclic constrained)
T13 peptide: DKFSEFWDLDMEV
Procedure: as §1, §2

ApoC3 peptide … E70M = molecular target: T14, ApoC3 peptide … E70M (human, not fully specified (bridges); also: cyclic constrained)
T14 peptide: DKFSEFWDLDPMV
Procedure: as §1, §2

ApoC3 peptide … K60N = molecular target: T15, ApoC3 peptide … K60N (human, not fully specified (bridges); also: cyclic constrained)
T15 peptide: DNFSEFWDLDPEV
Procedure: as §1, §2

ApoC3 peptide … P69N = ApoC3 peptide … P69N (human, cyclic constrained)
Procedure: as §1, §2

ApoC3 peptide … P69Q = ApoC3 peptide … P69Q (human, cyclic constrained)
Procedure: as §1, §2

ApoC3 peptide … K60R = molecular target: T16, ApoC3 peptide … K60R (human, not fully specified (bridges); also: cyclic constrained)
T16 peptide: DRFSEFWDLDPEV
Procedure: as §1, §2

ApoC3 peptide … E63R = ApoC3 peptide … E63R (human, cyclic constrained)
Procedure: as §1, §2

ApoC3 peptide … L67R = molecular target: T17, ApoC3 peptide … L67R (human, not fully specified (bridges); also: cyclic constrained)
T17 peptide: DKFSEFWDRDPEV
Procedure: as §1, §2

ApoC3 peptide … K60S = molecular target: T18, ApoC3 peptide … K60S (human, not fully specified (bridges); also: cyclic constrained)
T18 peptide: DSFSEFWDLDPEV
Procedure: as §1, §2

ApoC3 peptide … S62T = ApoC3 peptide … S62T (human, cyclic constrained)
Procedure: as §1, §2

ApoC3 peptide … W65T = molecular target: T19, ApoC3 peptide … W65T (human, not fully specified (bridges); also: cyclic constrained, ring type and places not given here)
T19 peptide: DKFSEFTDLDPEV
Procedure: as §1, §2

ApoC3 peptide … L67T = molecular target: T20, ApoC3 peptide … L67T (human, not fully specified (bridges); also: cyclic constrained)
T20 peptide: DKFSEFWDTDPEV
Procedure: as §1, §2

ApoC3 peptide … F61V = molecular target: T21, ApoC3 peptide … F61V (human, not fully specified (bridges); also: cyclic constrained)
T21 peptide: DKVSEFWDLDPEV
Procedure: as §1, §2

ApoC3 peptide … E63V = ApoC3 peptide … E63V (human, cyclic constrained)
Procedure: as §1, §2

ApoC3 peptide … F64V = molecular target: T22, ApoC3 peptide … F64V (human, not fully specified (bridges); also: cyclic constrained)
T22 peptide: DKFSEVWDLDPEV
Procedure: as §1, §2

ApoC3 peptide … D59W = molecular target: T23, ApoC3 peptide … D59W (human, not fully specified (bridges); also: cyclic constrained)
T23 peptide: WKFSEFWDLDPEV
Procedure: as §1, §2

ApoC3 peptide … F64W = molecular target: T24, ApoC3 peptide … F64W (human, not fully specified (bridges); also: cyclic constrained)
T24 peptide: DKFSEWWDLDPEV
Procedure: as §1, §2

ApoC3 peptide … D59Y = molecular target: T25, ApoC3 peptide … D59Y (human, not fully specified (bridges); also: cyclic constrained)
T25 peptide: YKFSEFWDLDPEV
Procedure: as §1, §2

ApoC3 peptide … W65Y = molecular target: T26, ApoC3 peptide … W65Y (human, not fully specified (bridges); also: cyclic constrained, ring type and places not given here)
T26 peptide: DKFSEFYDLDPEV
Procedure: as §1, §2

% of binding to wild-type peptide [1]: 100%
% of binding to wild-type peptide (ApoC3 peptide … W65A): 26.4%
% of binding to wild-type peptide (ApoC3 peptide … D68C): 5.29%
% of binding to wild-type peptide (ApoC3 peptide … E63F): 8.5%
% of binding to wild-type peptide (ApoC3 peptide … L67F): 26.3%
% of binding to wild-type peptide (ApoC3 peptide … V71G): 109%
% of binding to wild-type peptide (ApoC3 peptide … D59H): 85.8%
% of binding to wild-type peptide (ApoC3 peptide … S62H): 26.5%
% of binding to wild-type peptide (ApoC3 peptide … W65H): 17%
% of binding to wild-type peptide (ApoC3 peptide … D66H): 0%
% of binding to wild-type peptide (ApoC3 peptide … D68H): 0%
% of binding to wild-type peptide (ApoC3 peptide … P69H): 19.2%
% of binding to wild-type peptide (ApoC3 peptide … L67I): 105%
% of binding to wild-type peptide (ApoC3 peptide … F61K): 37.2%
% of binding to wild-type peptide (ApoC3 peptide … F61L): 61.3%
% of binding to wild-type peptide (ApoC3 peptide … D66L): 0%
% of binding to wild-type peptide (ApoC3 peptide … P69M): 44.1%
% of binding to wild-type peptide (ApoC3 peptide … E70M): 2.34%
% of binding to wild-type peptide (ApoC3 peptide … K60N): 139%
% of binding to wild-type peptide (ApoC3 peptide … P69N): 32.7%
% of binding to wild-type peptide (ApoC3 peptide … P69Q): 28.2%
% of binding to wild-type peptide (ApoC3 peptide … K60R): 105%
% of binding to wild-type peptide (ApoC3 peptide … E63R): 5.31%
% of binding to wild-type peptide (ApoC3 peptide … L67R): 22.6%
% of binding to wild-type peptide (ApoC3 peptide … K60S): 156%
% of binding to wild-type peptide (ApoC3 peptide … S62T): 139%
% of binding to wild-type peptide (ApoC3 peptide … W65T): 105%
% of binding to wild-type peptide (ApoC3 peptide … L67T): 100%
% of binding to wild-type peptide (ApoC3 peptide … F61V): 47%
% of binding to wild-type peptide (ApoC3 peptide … E63V): 13%
% of binding to wild-type peptide (ApoC3 peptide … F64V): 86%
% of binding to wild-type peptide (ApoC3 peptide … D59W): 78.1%
% of binding to wild-type peptide (ApoC3 peptide … F64W): 69.5%
% of binding to wild-type peptide (ApoC3 peptide … D59Y): 70.2%
% of binding to wild-type peptide (ApoC3 peptide … W65Y): 26.7%
B1: anti-ApoC3 antibody 6A6 (antibody, V domains shown)
VH: EVQLVESGGGLVQPGGSLRLSCAASGFTFSSYAGRWVRQVPGKGLEWVSSINAGGGSTSYADSVKGRFTISRDNAKNTLYLQMNSLKPEDTAKYYCTQNSYRYWGQGTRVAVSS
VL: DVVLTQTPGSLSVVPGESASISCKASQSLIHTDGKTYLYWLLQKPGQRPQLLIYQVSSHESGVPDRFTGSGSGTDFTLKISGVKAEDAGVYYCAQATYNPRTFGQGTKLEIK
notes: it was detected with goat anti-human IgG (Fc); also called mAb 6A6; llama antibody 6A6
